Data as given in publication PMC7144908.

Target: SV40 large T antigen (Tag) (Simian virus 40) (UniProt P03070)
Experiment: DSF

Sequence of SV40 large T antigen (Tag) (Simian virus 40) (P03070 whole entry): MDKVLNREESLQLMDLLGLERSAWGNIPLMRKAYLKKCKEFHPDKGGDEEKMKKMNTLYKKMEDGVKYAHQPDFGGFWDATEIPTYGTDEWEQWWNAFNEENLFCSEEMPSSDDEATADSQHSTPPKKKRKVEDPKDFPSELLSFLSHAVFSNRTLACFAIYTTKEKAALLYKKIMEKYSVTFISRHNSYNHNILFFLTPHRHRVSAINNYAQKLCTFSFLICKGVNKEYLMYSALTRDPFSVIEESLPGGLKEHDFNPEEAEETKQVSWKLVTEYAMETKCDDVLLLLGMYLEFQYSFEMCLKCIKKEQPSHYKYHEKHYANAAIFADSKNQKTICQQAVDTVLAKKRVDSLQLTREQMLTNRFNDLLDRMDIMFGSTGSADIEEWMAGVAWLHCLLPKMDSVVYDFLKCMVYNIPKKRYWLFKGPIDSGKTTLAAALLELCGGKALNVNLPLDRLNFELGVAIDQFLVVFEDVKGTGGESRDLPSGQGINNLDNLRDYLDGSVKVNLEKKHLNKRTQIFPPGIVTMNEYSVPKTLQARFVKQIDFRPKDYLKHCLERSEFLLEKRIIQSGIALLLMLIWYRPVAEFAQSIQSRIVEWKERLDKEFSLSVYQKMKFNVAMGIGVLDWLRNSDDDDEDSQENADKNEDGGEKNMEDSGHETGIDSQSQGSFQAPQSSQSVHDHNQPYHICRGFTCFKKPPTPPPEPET

For Poly(dT), the Kd was 40 nM.
